# B1: Bacillus subtilis YsiA (natural protein, B. subtilis, UniProt P94548 1-194, looked up)
# chain: MKQKRPKYMQIIDAAVEVIAENGYHQSQVSKIAKQAGVADGTIYLYFKNKEDILISLFKEKMGQFIERMEEDIKEKATAKEKLALVISKHFSLLAGDHNLAIVTQLELRQSNLELRQKINEILKGYLNILDGILTEGIQSGEIKEGLDVRLARQMIFGTIDETVTTWVMNDQKYDLVALSNSVLELLVSGIHNK
# Molecular target: the molecule itself
# Assay: SEC
protein,measurement,value
B1,stoichiometry N,2
